Key:
[1] = target: T1, glutathione S-transferase (GST) (UniProt P08515 1-218 = GST); assay: ELISA, Ab 0.050 µg/ml
T1 construct: also called carrier protein GST

Mouse Id1: Histidine [2] = target: T2, Mouse Id1: Histidine (mouse, UniProt P20067-2 1-148, limits assumed); assay: ELISA, Ab 0.000 µg/ml (blank)
T2 construct: Fusion protein made in E. coli from vector pGW07; also called m-Id1-His; not shown: His tag
T2 sequence (looked up): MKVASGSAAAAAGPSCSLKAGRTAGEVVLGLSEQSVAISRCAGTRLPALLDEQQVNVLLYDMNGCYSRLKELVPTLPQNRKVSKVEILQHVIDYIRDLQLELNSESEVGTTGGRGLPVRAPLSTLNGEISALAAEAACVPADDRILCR
Description: (§1) The rabbit monoclonal anti-human Id3 (clone #3-3) and the rabbit monoclonal anti-mouse/human Id3 (clones #6-1, 16-1, 17-3, and 42-1) produced in Example 6 were tested reactivity against the following antigens: mouse Id1:His, human Id1:His, mouse Id2:His, human Id2:His, mouse Id3:His, human Id3:His, mouse Id4:His, human Id4:His and GST.
(§2) 1. Microtiter wells (prepared in accordance with Example 6) were coated (0.1 μg/well) with mouse Id1:His, human Id1:His, human Id2:His, human Id3:His, and 1.0 μg/well with GST. [0155] 2. Antibody Diluent: 0.25% (w/v) BSA in 0.015M KPO₄ Buffer, 0.85% (w/v) NaCl, 0.1% (w/v) NaN₃, pH=7.40 [0156] 3. Rabbit monoclonal anti-human Id3 (clone #3-3) prepared in Example 7 was diluted to […] with the antibody diluent. […] 4. Rabbit monoclonal anti-mouse/human Id3 (clones #6-1, 16-1, 17-3, 42-1) prepared in Example 7 was diluted to 0.005, 0.010, 0.025, 0.05, 0.10, 0.25, and 0.50 μg/ml with the antibody diluent. […] 5. Conjugate Diluent: 50% (v/v) which consists of an aqueous solution containing Fetal Bovine Serum in 0.05 M Tris, 1% (v/v) Proclin-300, pH 7.6. [0159] 6. Conjugate: Goat anti-rabbit IgG (H+L)-HRP conjugate. [0160] 7. TMB reagent. […] 8. Stop solution (1 N HCI). Method
(§3) 1. Dispense 100 μL of antibody diluent, diluted rabbit monoclonal human Id3, and mouse/human Id3 hybridoma supernatants into appropriate wells. […] 2. Incubate at room temperature with mechanical shaking at 750 rpm for 90 minutes. [0165] 3. Remove the incubation mixture by flicking plate content into an appropriate waste container followed by rinsing the wells 5 times with distilled water. [0166] 4. Strike the wells sharply onto absorbent paper or paper towels to remove all residual water droplets. [0167] 5. Dispense 100 μL of 1:50,000 Goat Anti-Rabbit IgG-HRP Conjugate Reagent into each well. Gently mix for 5 seconds. [0168] 6. Incubate at room temperature with mechanical shaking at 750 rpm for 90 minutes. [0169] 7. Repeat procedures 3 and 4. [0170] 8. Dispense 100 μL of TMB Reagent into each well. Gently mix for 5 seconds. [0171] 9. Incubate at room temperature with mechanical shaking at 750 rpm for 20 minutes. […] 10.

Human Id3: Histidine [3] = target: T3, Human Id3: Histidine (human, UniProt Q02535 1-119 at identity 1.00)); assay: ELISA, Ab 0.000 µg/ml (blank)
T3 construct: Fusion protein made in E. coli from vector pGW07; also called h-Id3: His; Human Id3 (coated wells); not shown: His tag
T3 chain: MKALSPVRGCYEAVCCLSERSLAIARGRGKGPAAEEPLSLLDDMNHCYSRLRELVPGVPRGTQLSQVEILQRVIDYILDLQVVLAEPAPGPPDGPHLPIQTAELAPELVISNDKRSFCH
Description: as §1, §2, §3

[4] = target: T1, glutathione S-transferase (GST); assay: ELISA, Ab 0.000 µg/ml (blank)
Description: as §1, §2, §3

Human Id1: Histidine [5] = target: T4, Human Id1: Histidine (human, UniProt P41134 1-155, limits assumed); assay: ELISA, Ab 0.000 µg/ml (blank)
T4 construct: Fusion protein made in E. coli from vector pGW07; also called h-Id1: his; not shown: His tag
T4 sequence (looked up): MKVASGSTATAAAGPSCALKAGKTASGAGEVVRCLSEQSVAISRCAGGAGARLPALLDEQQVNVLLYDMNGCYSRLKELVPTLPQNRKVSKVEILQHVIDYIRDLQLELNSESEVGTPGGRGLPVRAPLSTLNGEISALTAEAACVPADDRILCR
Description: as §1, §2, §3

Mouse Id1: Histidine [6] = target: T2, Mouse Id1: Histidine; assay: ELISA on coated wells, summary
Human Id3: Histidine [7] = target: T3, Human Id3: Histidine; assay: ELISA on coated wells, summary
Human Id2: Histidine = target: T5, Human Id2: Histidine (human, UniProt Q02363 1-134, limits assumed); assay: ELISA on coated wells, summary
T5 construct: Fusion protein made in E. coli from vector pGW07; also called h-Id2: His; not shown: His tag
T5 sequence (looked up): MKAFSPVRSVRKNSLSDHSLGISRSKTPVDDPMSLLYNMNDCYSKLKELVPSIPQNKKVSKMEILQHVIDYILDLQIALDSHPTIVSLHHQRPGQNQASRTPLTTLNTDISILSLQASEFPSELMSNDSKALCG

Mouse Id3: Histidine = target: T6, Mouse Id3: Histidine (mouse, UniProt P41133 1-119); assay: ELISA on coated wells, summary
T6 construct: Fusion protein made in E. coli from vector pGW07; also called m-Id3: His; Mouse Id3 (coated wells); not shown: His tag
T6 sequence: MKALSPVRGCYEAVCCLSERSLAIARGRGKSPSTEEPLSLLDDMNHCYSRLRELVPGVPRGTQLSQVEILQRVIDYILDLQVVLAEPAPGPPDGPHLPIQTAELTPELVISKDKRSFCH

Human Id1: Histidine [8] = target: T4, Human Id1: Histidine; assay: ELISA on coated wells, summary
Mouse Id2: Histidine = target: T7, Mouse Id2: Histidine (mouse, UniProt P41136 1-134, limits assumed); assay: ELISA on coated wells, summary
T7 construct: Fusion protein made in E. coli from vector pGW07; also called m-Id2: His; not shown: His tag
T7 sequence (looked up): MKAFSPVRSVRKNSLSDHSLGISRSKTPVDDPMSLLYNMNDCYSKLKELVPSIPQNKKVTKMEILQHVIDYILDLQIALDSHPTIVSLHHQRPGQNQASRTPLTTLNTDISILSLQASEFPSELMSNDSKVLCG

T1 sequence (P08515 whole entry): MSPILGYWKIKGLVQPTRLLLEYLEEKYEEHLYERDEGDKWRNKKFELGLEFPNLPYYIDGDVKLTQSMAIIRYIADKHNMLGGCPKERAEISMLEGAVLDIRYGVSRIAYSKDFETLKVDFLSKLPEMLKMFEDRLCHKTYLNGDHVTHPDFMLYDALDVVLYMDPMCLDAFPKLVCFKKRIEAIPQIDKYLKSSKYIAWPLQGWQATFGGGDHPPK

B1: rabbit monoclonal anti-mouse/human Id3, clone #BCH-4/#16-1 (antibody, V domains shown)
VH: QSVEESGGRLVTPGTPLTLTCTASGFSLSSYYIHWVRQAPGKALEWIGYISDGGTTYYASWAKGRFTISKTSSTTVDLKMTSLTTEDTATYFCARQGFNIWGPGTLVTVSL
VL: AVLTQTPSPVSAAVGGTVTISCQSSQSVYNNNWLSWFQQKSGQPPKLLIYETSKLESGVPSRFKGSGSGTQFTLTIIDVQCDDAATYYCLGGYWTTSDNNIFGGGTEVVVK
notes: Rabbit IgG from a rabbit hybridoma; also called m/h Id3 MoAb 16-1
In the case of B1, the A450 [1] is reported as 0.046 A450, the A450 (Mouse Id1: Histidine [2]) is reported as 0.044 A450 and the A450 (Human Id3: Histidine [3]) is reported as 0.046 A450. For the same binder, the A450 [4] was 0.048 A450, the A450 (Human Id1: Histidine [5]) was 0.043 A450 and the “Cross-reactivity (%)” value (Mouse Id1: Histidine [6]) was less than 1%. For the same binder, the “Cross-reactivity (%)” value (Human Id3: Histidine [7]) was 100%, the “Cross-reactivity (%)” value (Human Id2: Histidine) was less than 1% and the “Cross-reactivity (%)” value (Mouse Id3: Histidine) was 100%. For the same binder, the “Cross-reactivity (%)” value (Human Id1: Histidine [8]) was less than 1% and the “Cross-reactivity (%)” value (Mouse Id2: Histidine) was less than 1%.

B2: rabbit monoclonal anti-mouse/human Id3, clone #BCH-4/#17-3 (antibody, V domains shown)
VH: QSVEESGGRLVTPGTPLTLTCTASGFSLSNVYIHWVRQAPGKGLEWIGYISDGDTARYATWAKGRFTISKTSSTTVNLKMTSLTTEDTATYFCARQGFNIWGPGTLVTVSL
VL: AVLTQTPSPVSAAVGGTVSISCQSSQSVWNNNWLSWFQQKPGQPPKLLIYETSKLESGVPSRFKGSGSGTQFTLTISDVQCDDAATYYCLGGYWTTSDNNVFGGGTEVVVK
notes: Rabbit IgG from a rabbit hybridoma; also called m/h Id3 MoAb 17-3; BCH-3/#17-3
B2 showed an A450 [1] of 0.046 A450, an A450 (Mouse Id1: Histidine [2]) of 0.045 A450 and an A450 (Human Id3: Histidine [3]) of 0.045 A450. For the same binder, the A450 [4] was 0.046 A450, the A450 (Human Id1: Histidine [5]) was 0.045 A450 and the “Cross-reactivity (%)” value (Mouse Id1: Histidine [6]) was less than 1%. For the same binder, the “Cross-reactivity (%)” value (Human Id3: Histidine [7]) was 100%, the “Cross-reactivity (%)” value (Human Id2: Histidine) was less than 1% and the “Cross-reactivity (%)” value (Mouse Id3: Histidine) was 100%. The “Cross-reactivity (%)” value (Human Id1: Histidine [8]) was less than 1% and the “Cross-reactivity (%)” value (Mouse Id2: Histidine) was less than 1%.

B3: rabbit monoclonal anti-mouse/human Id3, clone #BCH-4/#6-1 (antibody, V domains shown)
VH: QSVEESGGRLVTPGTPLTLTCTASGFSLSNVYIHWVRQAPGKGLEWIGYISDGDTARYATWAKGRFTISKTSSTTVNLKMTSLTTEDTATYFCARQGFNIWGPGTLVTVSL
VL: AVLTQTPSPVSAAVGGTVSISCQSSQSVWNNNWLSWFQQKPGQPPKLLIYETSKLESGVPSRFKGSGSGTQFTLTISDVQCDDAATYYCLGGYWTTSDNNVFGGGTEVVVK
notes: Rabbit IgG from a rabbit hybridoma; also called m/h Id3 MoAb 6-1
Binder B3 has an A450 [1] of 0.047 A450, an A450 (Mouse Id1: Histidine [2]) of 0.045 A450 and an A450 (Human Id3: Histidine [3]) of 0.043 A450. The A450 [4] was 0.047 A450, the A450 (Human Id1: Histidine [5]) was 0.045 A450 and the “Cross-reactivity (%)” value (Mouse Id1: Histidine [6]) was less than 1%. The “Cross-reactivity (%)” value (Human Id3: Histidine [7]) was 100%, the “Cross-reactivity (%)” value (Human Id2: Histidine) was less than 1% and the “Cross-reactivity (%)” value (Mouse Id3: Histidine) was 100%. For the same binder, the “Cross-reactivity (%)” value (Human Id1: Histidine [8]) was less than 1% and the “Cross-reactivity (%)” value (Mouse Id2: Histidine) was less than 1%.

B4: rabbit monoclonal anti-mouse/human Id3, clone #BCH-4/#42-1 (antibody, V domains shown)
VH: QSVEESGGRLVTPGTPLTLTCTASGFSLSSYYIHWVRQAPGKALEWIGYISDGGTTYYASWAKGRFTISKTSSTTVDLKMTSLTTEDTATYFCARQGFNIWGPGTLVTVSL
VL: AVLTQTPSPVSAAVGGTVTISCQSSQSVYNNNWLSWFQQKSGQPPKLLIYETSKLESGVPSRFKGSGSGTQFTLTIIDVQCDDAATYYCLGGYWSTSDNNIFGGGTEVVVK
notes: Rabbit IgG from a rabbit hybridoma; also called m/h Id3 MoAb 42-1
B4 was tested, and the A450 [1] was 0.049 A450, the A450 (Mouse Id1: Histidine [2]) was 0.052 A450 and the A450 (Human Id3: Histidine [3]) was 0.044 A450. The A450 [4] was 0.048 A450, the A450 (Human Id1: Histidine [5]) was 0.043 A450 and the “Cross-reactivity (%)” value (Mouse Id1: Histidine [6]) was less than 1%. For the same binder, the “Cross-reactivity (%)” value (Human Id3: Histidine [7]) was 100%, the “Cross-reactivity (%)” value (Human Id2: Histidine) was less than 1% and the “Cross-reactivity (%)” value (Mouse Id3: Histidine) was 100%. For the same binder, the “Cross-reactivity (%)” value (Human Id1: Histidine [8]) was less than 1% and the “Cross-reactivity (%)” value (Mouse Id2: Histidine) was less than 1%.

B5: rabbit monoclonal anti-human Id3, clone #BCH-4/#3-3 (antibody, V domains shown)
VH: QSVEESGGRLVTPGTPLTLTCTVSGIDLSSYAMSWVRQAPGKGLEWIGVIFPSNNVYYASWAKGRFTISKTSTTVDLKITSPTTEDTATYFCASMGAFDSWGPGTLVTVSS
VL: QVLTQTPSPVSAAVGGTVTINCQASQSIYNDNDLAWFQQKPGQPPKLLIYDASTLTSGVPSRFKGSGSGTQFTLTISDLDCDDAATYYCAARYSGNIYGFGGGTEVVVK
notes: Rabbit IgG from a rabbit hybridoma; also called h Id3 MoAb 3-3
In the case of B5, the A450 [1] is reported as 0.048 A450, the A450 (Mouse Id1: Histidine [2]) is reported as 0.047 A450 and the A450 [4] is reported as 0.044 A450. For the same binder, the A450 (Human Id1: Histidine [5]) was 0.046 A450.

Source: patent publication US20070178531A1 (BIOCHECK, published 2007)
